Assays:
mouse FcRn (mouse) = mouse FcRn (mouse) (UniProt Q61559); test: SPR pH 6.0, FcRn immobilised
[1] = molecular target: cynomolgus FcRn (cynomolgus) (UniProt Q8SPV9); test: SPR pH 6.0, FcRn immobilised
human FcRn (human) = human FcRn (human) (UniProt P55899); test: SPR pH 6.0, FcRn immobilised
[2] = molecular target: FcRn of the FcRn column (Roche, Order No. 8128057001); test: FcRn affinity chromatography, pH gradient
human CCR8 (human) [3] = molecular target: human CCR8 (human) (UniProt P51685); test: cell-based or functional assay
human CCR8 (human) [4] = molecular target: human CCR8 (human) (UniProt P51685); test: FACS, CHO-hCCR8
human CCR8 (human) [5] = molecular target: human CCR8 (human) (UniProt P51685); test: FACS, BODIPY-labelled antibody, HuT78
[6] = molecular target: cynomolgus CCR8 (cynomolgus); test: FACS, CHO-cynoCCR8
murine CCR8 (mouse) = murine CCR8 (mouse) (UniProt P56484); test: FACS, BODIPY-labelled antibody, BW5147.3
Chain of murine CCR8 (mouse) (P56484 whole entry): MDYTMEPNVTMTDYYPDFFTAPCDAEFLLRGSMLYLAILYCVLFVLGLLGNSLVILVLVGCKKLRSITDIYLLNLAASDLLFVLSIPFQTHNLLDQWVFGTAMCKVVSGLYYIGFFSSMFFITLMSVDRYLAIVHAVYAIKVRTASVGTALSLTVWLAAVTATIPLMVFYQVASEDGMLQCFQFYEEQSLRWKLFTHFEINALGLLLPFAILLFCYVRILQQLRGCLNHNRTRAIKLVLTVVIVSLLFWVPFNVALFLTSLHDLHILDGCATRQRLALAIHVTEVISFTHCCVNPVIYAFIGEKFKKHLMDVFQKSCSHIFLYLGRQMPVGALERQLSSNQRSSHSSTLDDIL

Chain of Ustekinumab (antibody) (HC): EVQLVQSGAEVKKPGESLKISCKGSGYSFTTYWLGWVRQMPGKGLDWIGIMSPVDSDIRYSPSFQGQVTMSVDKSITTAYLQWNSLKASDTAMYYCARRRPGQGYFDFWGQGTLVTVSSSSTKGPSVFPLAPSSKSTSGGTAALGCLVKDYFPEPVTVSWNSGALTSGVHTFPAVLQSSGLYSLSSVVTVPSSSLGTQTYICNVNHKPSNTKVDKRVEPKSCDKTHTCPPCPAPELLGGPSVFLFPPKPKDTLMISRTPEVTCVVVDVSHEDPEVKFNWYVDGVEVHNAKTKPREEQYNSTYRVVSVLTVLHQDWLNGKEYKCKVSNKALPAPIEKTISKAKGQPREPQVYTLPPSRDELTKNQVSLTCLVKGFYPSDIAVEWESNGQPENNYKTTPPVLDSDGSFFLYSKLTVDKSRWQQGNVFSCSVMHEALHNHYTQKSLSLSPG
Chain of Ustekinumab (antibody) (LC): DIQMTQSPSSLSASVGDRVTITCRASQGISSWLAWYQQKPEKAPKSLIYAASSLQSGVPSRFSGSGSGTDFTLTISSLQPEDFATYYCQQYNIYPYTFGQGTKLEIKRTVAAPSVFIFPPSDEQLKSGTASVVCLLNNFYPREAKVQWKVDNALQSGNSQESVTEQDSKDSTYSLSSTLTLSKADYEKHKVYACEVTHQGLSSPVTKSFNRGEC
Chain of FcRn of the FcRn column (Roche, Order No. 8128057001) (P55899 24-297, chain 1 of 2): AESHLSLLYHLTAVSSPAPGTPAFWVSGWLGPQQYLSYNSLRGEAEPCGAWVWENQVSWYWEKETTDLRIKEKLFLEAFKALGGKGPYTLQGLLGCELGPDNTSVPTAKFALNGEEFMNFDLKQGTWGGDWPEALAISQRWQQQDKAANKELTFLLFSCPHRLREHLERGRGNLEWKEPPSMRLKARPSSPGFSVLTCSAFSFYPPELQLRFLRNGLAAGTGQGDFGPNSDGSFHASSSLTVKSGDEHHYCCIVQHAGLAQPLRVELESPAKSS
Chain of FcRn of the FcRn column (Roche, Order No. 8128057001) (P61769 21-119, chain 2 of 2, further chain): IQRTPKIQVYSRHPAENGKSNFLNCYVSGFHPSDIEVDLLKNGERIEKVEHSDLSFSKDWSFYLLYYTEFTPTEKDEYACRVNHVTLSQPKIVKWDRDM
Chain of human FcRn (human) (P55899 24-297 limits assumed, form in doubt): as the sequence (P55899 24-297, chain 1 of 2) above
Chain of cynomolgus FcRn (cynomolgus) (Q8SPV9 24-297 limits assumed, form in doubt): as the sequence (P55899 24-297, chain 1 of 2) above, with N39D, E44Q, G99S, S189G, S190N, L217M, S269T counted along it
Chain of mouse FcRn (mouse) (Q61559 22-297 limits assumed, form in doubt): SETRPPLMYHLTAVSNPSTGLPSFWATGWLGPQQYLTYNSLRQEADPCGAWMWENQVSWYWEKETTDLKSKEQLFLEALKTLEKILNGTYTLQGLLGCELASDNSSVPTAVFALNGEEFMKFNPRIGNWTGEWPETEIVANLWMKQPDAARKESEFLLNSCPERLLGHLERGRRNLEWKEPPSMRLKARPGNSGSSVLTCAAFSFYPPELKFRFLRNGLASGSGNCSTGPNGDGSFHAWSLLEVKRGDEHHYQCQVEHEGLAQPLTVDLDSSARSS
Chain of cynomolgus CCR8 (cynomolgus) (O97665 other isoform, or with tags, fused parts or gaps): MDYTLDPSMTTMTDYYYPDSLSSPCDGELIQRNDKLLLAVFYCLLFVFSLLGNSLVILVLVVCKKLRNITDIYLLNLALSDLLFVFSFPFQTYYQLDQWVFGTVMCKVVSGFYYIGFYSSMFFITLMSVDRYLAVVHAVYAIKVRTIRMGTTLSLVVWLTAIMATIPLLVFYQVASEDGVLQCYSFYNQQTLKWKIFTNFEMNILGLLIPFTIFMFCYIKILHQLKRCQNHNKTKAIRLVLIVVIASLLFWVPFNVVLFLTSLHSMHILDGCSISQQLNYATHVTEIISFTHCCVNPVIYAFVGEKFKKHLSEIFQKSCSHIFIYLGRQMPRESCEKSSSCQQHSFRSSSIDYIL

Row | Substance | Kd (mouse FcRn (mouse)) [µM] | Kd [1] [µM] | Kd (human FcRn (human)) [µM] | pH at Elution [2] [pH] | further results
1 | Briakinumab (antibody) | 0.56 | 0.16 | 0.23 | 7.85 | –
2 | CCL1 (human) (from UniProt P22362 24-96) (ligand) | – | – | – | – | EC80, β-arrestin signaling (DiscoverX assay) (human CCR8 (human) [3]): 0.02 mg/L
3 | L263G8 (antibody) | – | – | – | – | EC50 (human CCR8 (human) [4]): 0.00031 µM; IC50, Ca flux assay (human CCR8 (human) [3]): 0.00126 µM; IC50, inhibition of CCL1 induced β-arrestin signaling (human CCR8 (human) [3]): 0.0138 µM; FACS HuT78 [MFI] (human CCR8 (human) [5]): 40 MFI; EC50 [6]: 0.132 µM
4 | SA214G2 (antibody) | – | – | – | – | FACS mBW5147.3 [MFI] (murine CCR8 (mouse)): 48 MFI
5 | Ustekinumab (antibody) | 0.071 | 0.26 | 0.2 | 7.22 | –

Reference: patent US20230250178A1
